The values that follow come from patent US20160272977, “DNMT Inhibitors” (New England Biolabs, Inc., published 2016).

The target of series [1] is T1, DNMT1 full-length (Homo sapiens, UniProt P26358 SEQ:1-1616). Description: inhibition; competitive vs hemimethylated DNA. Conditions: tags: baculovirus Sf9.
Series [2] concerns the target T2, GST-DNMT1 fragment 4 (Homo sapiens, UniProt P26358 SEQ:1081-1408).
T2 chain: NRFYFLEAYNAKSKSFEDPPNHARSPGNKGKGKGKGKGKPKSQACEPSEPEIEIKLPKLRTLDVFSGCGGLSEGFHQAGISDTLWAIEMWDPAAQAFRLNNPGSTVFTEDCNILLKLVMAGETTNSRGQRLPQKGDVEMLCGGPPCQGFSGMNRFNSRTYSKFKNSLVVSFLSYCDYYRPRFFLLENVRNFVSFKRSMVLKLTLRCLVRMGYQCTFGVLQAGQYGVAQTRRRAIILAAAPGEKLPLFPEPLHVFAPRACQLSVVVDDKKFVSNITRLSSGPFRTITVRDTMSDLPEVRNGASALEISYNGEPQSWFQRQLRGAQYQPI
Nature of the series: pulldown; most efficient binder of the four. Conditions: tags: N-terminal GST (pGEX-5x-1); label: 5'-33P in pull-down; predicted to lack stem-loop. The text has this:
(§1) The resulting protein bands are shown in FIG. 1B; asterisks mark the positions of the GST-DNMT1 fusion proteins. GST-DNMT1 fragments were adjusted to the same protein concentration with 50% slurry sepharose beads. RNase inhibitor (New England Biolabs, Ipswich, Mass.) was applied to beads slurry at 40 U/mL immediate before use.
(§2) The GST-DNMT1 fragments exposed to a series of small RNA molecules are depicted in FIG. 1D. The RNA oligos were labelled at the 5′ end with [γ-33P]ATP (PerkinElmer, Waltham, Mass.) using T4 polynucleotide kinase (New England Biolabs, Ipswich, Mass.), and purified with Illustra® ProbeQuant® G-50 Micro Columns (GE Healthcare Life Sciences, Piscataway, N.J.) per the manufacturer's instructions. The binding assay was performed in 50 μL reaction volume containing 20 μL of GST-DNMT1 fragment beads, 5 μL of 5 μM labelled RNA oligo, 5 μL of 10×DNMT1 reaction buffer (New England Biolabs, Ipswich, Mass.) and 20 μL of RNase-free water. After incubation at 37° C. for 10 minutes, beads were washed twice and suspended in 200 μL of PBS. The radioactivity associated with the beads was analyzed by liquid scintillation counting using a Tri-Carb® 2900TR (PerkinElmer, Waltham, Mass.). The amount of RNA oligo bound to beads were calculated by normalizing the scintillation counts of beads to that of 1 pmol labelled RNA oligo.

Series [3] concerns the target T1, DNMT1 full-length. Nature of the series: inhibition; competitive vs hemimethylated DNA, 37 C. As to conditions: tags: baculovirus Sf9.
Series [4] addresses T2, GST-DNMT1 fragment 4. Nature of the series: pulldown; greater than asCEBPα-1. Conditions: tags: N-terminal GST (pGEX-5x-1); label: 5'-33P in pull-down.
Description: as §1, §2

Series [5] addresses T1, DNMT1 full-length. Nature of the series: inhibition; competitive vs hemimethylated DNA. As to conditions: tags: baculovirus Sf9. The protocol: Single point biochemistry assays were performed by incubating 10 nM of the DNMT1 enzyme with 1 μM of hemimethylated DNA and 5.328 μM of [³H]AdoMet in the presence of 5.28 μM of folded synthetic RNA oligos. The reaction was done for 15 minutes and radioactivity was counted. [³H]AdoMet incorporation, initial velocity curve and Kᵢ were calculated as described in Example 2.
FIGS. 7C and 7D are representative plots of the inhibitory activity of 5p-5 and 3p-5 at increasing concentrations.
This is another data set of the same source.

For series [6], the target named is T1, DNMT1 full-length. Nature of the series: inhibition; mixed inhibition vs AdoMet. Conditions: tags: baculovirus Sf9. The protocol: For determination of the inhibition pattern and Kᵢ of asCEBPα-2 versus hemimethylated DNA substrate, 20 nM of the DNMT1 enzyme was incubated with 1.328, 0.884, 0.59, 0.394, 0.262, 0.1748 and 0.1168 μM (concentration calculated in terms of hemimethylated CpG) of the 36-bp length hemimethylated DNA substrate with the sequence of (CMeGG•CCG)₁₂ and 5.328 μM of [³H]AdoMet (PerkinElmer, Waltham, Mass.) in the presence of 0, 0.25, 0.5, 1, 2 and 4 μM folded asCEBPα-2 inhibitor RNA in 1×DNMT1 reaction buffer (New England Biolabs, Ipswich, Mass.). The reaction was performed at 37° C. for 30 minutes and DNMT1 enzyme was quenched by flash freezing the reaction mix in a dry ice-methanol bath. The reaction was split into two halves and spotted onto DE81 Whatman® 3658-325 ion exchange filter papers (GE Healthcare Life Sciences, Piscataway, N.J.). The Ki and velocity plots were calculated according to Bacolla, et al., J. Biol. Chem., 274:33011-33019 (1999).
For determination of the inhibition patterns of various test RNAs and Kᵢ for asCEBPα-2 versus AdoMet, reactions were carried out at similar conditions as those described above. […] The nanomolar [³H]CH₃ transferred to hemimethylated DNA substrate was calculated in the same way as in the competitive experiment versus hemimethylated DNA substrate, except that the nanomolar concentration obtained was multiplied by an coefficient of 19.5. […]

Series [7] has as its target T2, GST-DNMT1 fragment 4. Nature of the series: pulldown; GST pull-down, 33P RNA, 37 C; lower than HPE variant. As to conditions: tags: N-terminal GST (pGEX-5x-1); label: 5'-33P in pull-down; stem-loop.
Description: as §1, §2

Series [8] concerns the target T2, GST-DNMT1 fragment 4. Description: pulldown; lower than HPE variant. As to conditions: tags: N-terminal GST (pGEX-5x-1); label: 5'-33P in pull-down; stem-loop.
Description: as §1, §2

Where [9] appears, read: label: 5'-33P in pull-down, stem-loop.

T1 sequence (P26358 whole entry, the tested form may be a part): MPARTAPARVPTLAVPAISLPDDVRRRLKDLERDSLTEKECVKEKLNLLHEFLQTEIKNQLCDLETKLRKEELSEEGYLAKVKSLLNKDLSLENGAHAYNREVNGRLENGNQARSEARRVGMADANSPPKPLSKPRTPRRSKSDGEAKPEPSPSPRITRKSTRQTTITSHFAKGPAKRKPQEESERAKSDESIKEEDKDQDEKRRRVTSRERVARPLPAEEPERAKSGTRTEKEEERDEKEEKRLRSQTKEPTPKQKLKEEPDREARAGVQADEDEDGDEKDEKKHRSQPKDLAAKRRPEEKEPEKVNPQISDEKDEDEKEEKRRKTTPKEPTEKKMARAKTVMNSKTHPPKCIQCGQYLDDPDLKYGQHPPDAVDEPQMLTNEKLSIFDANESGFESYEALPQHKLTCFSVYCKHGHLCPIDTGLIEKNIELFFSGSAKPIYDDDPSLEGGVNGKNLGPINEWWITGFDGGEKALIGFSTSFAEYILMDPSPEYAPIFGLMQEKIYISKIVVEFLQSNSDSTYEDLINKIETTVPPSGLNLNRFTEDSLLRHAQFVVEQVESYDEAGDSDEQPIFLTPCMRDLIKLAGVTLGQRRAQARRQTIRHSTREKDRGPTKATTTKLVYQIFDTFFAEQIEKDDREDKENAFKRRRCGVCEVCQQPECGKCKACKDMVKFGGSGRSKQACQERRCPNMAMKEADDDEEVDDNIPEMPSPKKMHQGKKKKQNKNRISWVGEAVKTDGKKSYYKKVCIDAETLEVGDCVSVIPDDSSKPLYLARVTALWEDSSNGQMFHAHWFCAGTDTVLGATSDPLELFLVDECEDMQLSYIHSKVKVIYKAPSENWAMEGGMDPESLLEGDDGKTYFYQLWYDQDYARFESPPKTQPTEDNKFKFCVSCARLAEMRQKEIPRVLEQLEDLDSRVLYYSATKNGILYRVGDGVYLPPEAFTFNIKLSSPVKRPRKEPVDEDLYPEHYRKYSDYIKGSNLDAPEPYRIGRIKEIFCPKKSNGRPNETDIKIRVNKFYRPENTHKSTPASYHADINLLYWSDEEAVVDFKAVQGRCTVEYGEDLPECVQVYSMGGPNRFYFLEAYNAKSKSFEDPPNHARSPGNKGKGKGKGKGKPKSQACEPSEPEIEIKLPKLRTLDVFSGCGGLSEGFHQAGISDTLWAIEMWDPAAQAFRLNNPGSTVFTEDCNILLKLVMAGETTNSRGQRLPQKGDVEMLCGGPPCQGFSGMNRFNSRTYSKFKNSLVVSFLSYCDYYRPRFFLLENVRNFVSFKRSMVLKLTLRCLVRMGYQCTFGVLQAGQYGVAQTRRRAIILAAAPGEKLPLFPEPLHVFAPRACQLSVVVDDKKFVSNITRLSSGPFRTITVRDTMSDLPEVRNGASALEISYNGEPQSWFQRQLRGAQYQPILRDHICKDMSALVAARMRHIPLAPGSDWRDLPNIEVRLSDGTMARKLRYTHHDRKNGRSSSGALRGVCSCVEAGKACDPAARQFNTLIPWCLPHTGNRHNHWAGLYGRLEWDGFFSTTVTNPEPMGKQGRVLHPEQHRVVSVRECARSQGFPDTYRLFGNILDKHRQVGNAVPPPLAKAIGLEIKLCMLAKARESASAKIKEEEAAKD

In series [1], ACUCAAAAUGGGGGCGCUUUCC (ssRNA) [miR-373-5p] returned a Ki of 298 nM.
The same measure, in the same setting: with UCUUUGGUUAUCUAGCUGUAUGA (ssRNA) [miR-9-5p] the figure was 493 nM; with AGGUUGGGAUCGGUUGCAAUGCU (ssRNA) [miR-92a-1-5p], 476 nM; with UAAAGUGCUUAUAGUGCAGGUAG (ssRNA) [miR-20a-5p], 560 nM.
In the case of UGAGAACUGAAUUCCAUGGGUU (ssRNA) [miR-146a-5p], the affinity in series [1], expressed as Ki, was 1030 nM.
In the case of UGUGCAAAUCCAUGCAAAACUGA (ssRNA) [miR-19b-3p], in series [1], the affinity corresponds to a Ki of 3320 nM.
In turn, UAGCAGCACGUAAAUAUUGGCG (ssRNA) [miR-16-5p] came in with a Ki in series [1] of 463 nM.
Consider UAGCUUAUCAGACUGAUGUUGA (ssRNA) [miR-21-5p], for which the Ki in series [1] came to 1290 nM.
With GUCCAGUUUUCCCAGGAAUCCCU (ssRNA) [miR-145-5p], the Ki in series [1] is 2460 nM.
With GACAGUGGAGAGGGGCGGAGCGG (ssRNA) [asCEBPα-2HPE], the binding result in series [2] is given as “binds”. Further, the Ki in series [1] (label: 5'-33P in pull-down, predicted to lack stem-loop) is 135 nM.
UUAAUGCUAAUCGUGAUAGGGGU (ssRNA) [miR-155-5p] returned a Ki in series [3] of 27.9 nM.
The molecule CCGGGAAGCAGGCGGCGUCAGGC (ssRNA) [asCEBPα-1HPE] yielded a Ki in series [1] (label: 5'-33P in pull-down) of 918 nM. Also, in series [4], the binding result is on record as “binds”.
Turning to AUAAAGCUAGAUAACCGAAAGU (ssRNA) [miR-9-3p], the Ki in series [1] stood at 1600 nM.
Molecule UCGUGAUAGGGGU (ssRNA) [5p-5] came in with a Ki in series [5] of 124 nM.
On to UAUUGCACUUGUCCCGGCCUGU (ssRNA) [miR-92a-3p], for which the Ki in series [1] is 1650 nM.
For CAAAGUGCUUACAGUGCAGGUAG (ssRNA) [miR-17-5p], the Ki in series [6] came out at 385 nM; in series [1] it was 317 nM.
As to CCGGGACGCAGGCGGCGUCAGGC (ssRNA) [asCEBPα-1], the Ki in series [1] (setting [9]) stood at 2000 nM. Also, the binding result in series [7] was “binds”.
UCGGAUCCGUCUGAGCUUGGCU (ssRNA) [miR-127-3p] gave a Ki in series [1] of 269 nM.
As to GCCAGUGGCGAGGGGCGGCGCGG (ssRNA) [asCEBPα-2], the binding result in series [8] was “binds”. Besides, the Ki in series [6] (setting [9]) worked out at 91.7 nM; in series [1] (setting [9]), 434 nM.
